Assay results from patent US20190029975A1, “TOCOPHEROL AND TOCOTRIENOL QUINONE DERIVATIVES FOR INCREASING THIOSULFATE LEVELS OR DECREASING HYDROGEN SULFIDE LEVELS” (BIOELECTRON TECHNOLOGY CORPORATION, priority 2016, published 2019).

Substrate: CC(C)=CCC/C(C)=C/CC/C(C)=C/CC[C@@](C)(O)CCC1=C(C)C(=O)C(C)=C(C)C1=O
Experiment: Kinetic parameters of EPI-743 with SQOR
Format: biochemical, human
Conditions: other: 200 micromolar Na2S, 2 mM Na2SO3, pH 7.5, reduced oxygen (<1000 ppm), 30.0 °C
Description: Human sulfide:quinone oxidoreductase (SQOR) protein was expressed and purified according to the method described in Jackson, M.R., et al. “Human Sulfide:Quinone Oxidoreductase Catalyzes the First Step in Hydrogen Sulfide Metabolism and Produces a Sulfane Sulfur Metabolite”, Biochemistry, Publication Date (Web): 1 Aug 2012, with the following exceptions: (1) a chaperone plasmid set (Plasmid pG-KJE8, plasmid #1 in catalog no. 3340) from Takara Bio Inc. (Japan) was used; (2) DHPC detergent was replaced with the following: 1.0% (w/v) CHAPS, 0.5% deoxycholate, or 1.0% octylmaltoside. The detergent was used in the initial lysis buffer, and removed in the IMAC purification step (no detergents in the storage conditions); (3) the ion-exchange (Q-sepharose) chromatography step was not used in the purification. The final SQOR protein contained amino acids 42-450 of the human SQOR protein.
Target protein was purified on IMAC to ≥90% purity (on Ni resin). Target protein was stored in 25 mM Tris pH 7.5, 150mM NaCl, 2 mM DTT 20% glycerol.
EPI-743 was assayed for activity with SQOR. […]
Briefly, SQOR enzyme, compound, inorganic sulfide (200 micromolar Na2S) and a sulfur acceptor (2 mM Na2SO3) were brought together. The reduction of the quinone substrate to hydroquinone product in the presence of sulfide ion, sulfur acceptor and SQOR enzyme was monitored by the decrease in quinone concentration over time, by observing the UV signal diagnostic for the specific quinone (See Table 3):
General assay conditions: Assays were performed in 100 mM Tris, pH 7.5, 0.5 mM EDTA. SQOR was included at approximately 5 nM, as estimated by total protein concentration determined by Bradford assay with BSA as standard and the estimated purity of SQOR from SDS-PAGE. […]
The kinetic parameters of compounds with SQOR were determined by varying the concentration of the compound over a suitable range and interrogating the impact of that variation on the enzymatic rate.
The parameters kcat and Km, for example, can be determined by nonlinear fitting of the rate data to the Michaelis-Menten equation: […]

B1: Human sulfide:quinone oxidoreductase (SQOR) (Homo sapiens) (protein)
chain: NHYEVLVLGGGSGGITMAARMKRKVGAENVAIVEPSERHFYQPIWTLVGAGAKQLSSSGRPTASVIPSGVEWIKARVTELNPDKNCIHTDDDEKISYRYLIIALGIQLDYEKIKGLPEGFAHPKIGSNYSVKTVEKTWKALQDFKEGNAIFTFPNTPVKCAGAPQKIMYLSEAYFRKTGKRSKANIIFNTSLGAIFGVKKYADALQEIIQERNLTVNYKKNLIEVRADKQEAVFENLDKPGETQVISYEMLHVTPPMSPPDVLKTSPVADAAGWVDVDKETLQHRRYPNVFGIGDCTNLPTSKTAAAVAAQSGILDRTISVIMKNQTPTKKYDGYTSCPLVTGYNRVILAEFDYKAEPLETFPFDQSKERLSMYLMKADLMPFLYWNMMLRGYWGGPAFLRKLFHLGMS
notes: The final SQOR protein contained amino acids 42-450 of the human SQOR protein; His tag (inferred from IMAC purification on Ni resin); made in house; E. coli is inferred from the Takara chaperone plasmid pG-KJE8 and from own knowledge of the cited Jackson et al. 2012 method
- Km: 200 µM
- kcat: 76 s⁻¹
- kcat/Km: 400000 M⁻¹ s⁻¹
